For 1 substance, stoichiometry N results are on record in paper PMC2064651.

The experiment has as its target ADP/ATP carrier (S. cerevisiae (endogenous in strain GA74)) (UniProt P18239). Description: native gel or EMSA.

“ADP/ATP carrier (from UniProt P18239 1-318) (natural protein)”: the stoichiometry N – broadly, the number of molecules, sites or subunits per partner or assembly – is 2.
